Assays:
Halo-KDELR-V5-VN (human) = target: T1, Halo-KDELR-V5-VN (human) (UniProt P24390)
T1 sequence: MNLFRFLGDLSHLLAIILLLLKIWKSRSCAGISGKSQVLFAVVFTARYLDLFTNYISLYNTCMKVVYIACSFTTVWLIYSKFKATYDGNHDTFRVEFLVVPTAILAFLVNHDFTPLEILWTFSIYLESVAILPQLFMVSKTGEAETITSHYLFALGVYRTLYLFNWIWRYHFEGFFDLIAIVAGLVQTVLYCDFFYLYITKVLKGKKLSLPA

[1] = target: T2, KDELR-mCherry (HT1080 stable) (human) (UniProt P24390)
T2 sequence: T1 sequence

Venus signal of Halo-KDELR-V5-VN with Halo-KDELR-myc-VC (split Venus), 30 min against 0 min with 50 μM TAEKDEL peptide (Halo-KDELR-V5-VN (human)): 2 fold
phosphorylation of STAT3 (Tyr705) in HT1080 cells stably overexpressing KDELR-mCherry, 50 μM TAEKDEL at 37 °C for 30 min, western blot [1]: 37%
B1: TAEKDEL peptide (peptide)
peptide: TAEKDEL

From paper PMC10880305
